In publication PMC2532730 (Nucleic Acids Research, 2008):

Molecular target: BLM (Bloom's syndrome helicase), purified recombinant (human, UniProt P54132 1-1417)
Experiment: far-Western, overlay or dot blot

Sequence of BLM (Bloom's syndrome helicase), purified recombinant (P54132 whole entry): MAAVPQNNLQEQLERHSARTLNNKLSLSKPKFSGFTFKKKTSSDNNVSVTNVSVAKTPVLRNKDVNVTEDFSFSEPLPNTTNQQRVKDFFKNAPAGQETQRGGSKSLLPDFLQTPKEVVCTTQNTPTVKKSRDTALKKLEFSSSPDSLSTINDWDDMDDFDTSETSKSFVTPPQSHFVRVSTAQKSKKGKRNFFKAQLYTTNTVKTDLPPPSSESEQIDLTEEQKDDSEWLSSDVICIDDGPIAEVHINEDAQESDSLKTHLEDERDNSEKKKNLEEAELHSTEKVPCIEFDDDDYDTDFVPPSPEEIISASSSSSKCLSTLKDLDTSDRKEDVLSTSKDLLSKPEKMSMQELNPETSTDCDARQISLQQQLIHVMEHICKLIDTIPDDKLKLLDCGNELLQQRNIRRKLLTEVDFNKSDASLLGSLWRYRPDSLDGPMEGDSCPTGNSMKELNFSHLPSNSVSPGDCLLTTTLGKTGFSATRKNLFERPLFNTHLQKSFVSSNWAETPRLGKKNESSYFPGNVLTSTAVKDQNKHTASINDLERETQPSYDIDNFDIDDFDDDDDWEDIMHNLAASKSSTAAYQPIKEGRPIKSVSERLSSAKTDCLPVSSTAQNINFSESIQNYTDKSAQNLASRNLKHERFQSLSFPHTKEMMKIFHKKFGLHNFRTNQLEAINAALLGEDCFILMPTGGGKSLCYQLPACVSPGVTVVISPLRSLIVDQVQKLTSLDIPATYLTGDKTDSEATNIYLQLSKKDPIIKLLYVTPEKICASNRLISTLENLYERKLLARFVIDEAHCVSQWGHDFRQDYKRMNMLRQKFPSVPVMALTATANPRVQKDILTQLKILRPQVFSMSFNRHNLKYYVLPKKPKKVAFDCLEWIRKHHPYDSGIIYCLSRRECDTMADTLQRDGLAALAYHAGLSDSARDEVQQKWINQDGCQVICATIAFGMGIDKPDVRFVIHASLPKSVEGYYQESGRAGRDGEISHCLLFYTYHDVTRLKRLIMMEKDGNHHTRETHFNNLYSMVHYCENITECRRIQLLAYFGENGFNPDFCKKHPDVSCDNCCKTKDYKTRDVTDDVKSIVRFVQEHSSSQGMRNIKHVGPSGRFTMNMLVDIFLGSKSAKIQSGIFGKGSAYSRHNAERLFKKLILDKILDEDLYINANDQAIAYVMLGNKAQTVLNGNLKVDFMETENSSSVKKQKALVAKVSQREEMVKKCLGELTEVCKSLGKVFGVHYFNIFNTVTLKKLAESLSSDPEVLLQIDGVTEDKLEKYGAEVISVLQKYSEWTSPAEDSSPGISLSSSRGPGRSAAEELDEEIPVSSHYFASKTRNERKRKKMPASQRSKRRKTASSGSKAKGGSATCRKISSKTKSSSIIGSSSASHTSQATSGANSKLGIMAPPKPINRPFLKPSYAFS

B1: p12 subunit of the purified four-subunit hPOL δ enzyme (natural protein, human, UniProt Q9HCU8 1-107, looked up)
chain: MGRKRLITDSYPVVKRREGPAGHSKGELAPELGEEPQPRDEEEAELELLRQFDLAWQYGPCTGITRLQRWCRAKQMGLEPPPEVWQVLKTHPGDPRFQCSLWHLYPL
binding result: binds

B2: 6xHis-p12 protein (p12, smallest subunit of human DNA polymerase δ), purified recombinant (natural protein, UniProt Q9HCU8 1-107, looked up)
chain: B1 chain
binding result: binds
